According to patent US20250250355A1 (BIOSION, published 2025):
Where two headings read alike, the source gives them in different places.

How the values were obtained:
[1] = target: T1, full length human SIRPα on cell membranes (HEK293-SIRPα cells; 293F-SIRPα cells) (human, UniProt P78324 31-504); assay: cell based binding FACS on HEK293-SIRPα cells, MFI
T1 construct: whole, on cells; also called cell surface human SIRPα; cell surface SIRPα

[2] = target: T2, full length human SIRPβ on cell membranes (HEK293-SIRPβ cells; 293F cells expressing human SIRPβ) (human, UniProt O00241 30-398); assay: cell based binding FACS on HEK293-SIRPβ cells, MFI
T2 construct: whole, on cells; also called cell surface human SIRPβ

[3] = target: T3, human SIRPα-V8-his protein (human, UniProt P78324 31-370, limits assumed); assay: indirect ELISA on coated human SIRPα-V8-his, OD(450-630); curve not visible in the scan
[4] = target: T4, cynomolgus SIRPα-his protein (cynomolgus); assay: indirect ELISA on coated cynomolgus SIRPα-his, OD(450-630); curve not visible in the scan
T4 construct: also called Cyno SIRPα-his; monkey SIRPα
T4 chain: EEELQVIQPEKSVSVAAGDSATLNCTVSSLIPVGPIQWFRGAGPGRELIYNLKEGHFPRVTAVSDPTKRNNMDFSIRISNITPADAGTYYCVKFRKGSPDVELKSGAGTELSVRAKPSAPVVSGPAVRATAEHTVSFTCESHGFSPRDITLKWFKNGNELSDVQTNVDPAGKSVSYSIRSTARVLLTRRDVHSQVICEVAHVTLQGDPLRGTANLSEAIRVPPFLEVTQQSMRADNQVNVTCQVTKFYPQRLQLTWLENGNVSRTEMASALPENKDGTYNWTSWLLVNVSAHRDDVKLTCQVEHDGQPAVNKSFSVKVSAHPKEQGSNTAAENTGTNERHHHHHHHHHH

[5] = target: T4, cynomolgus SIRPα-his protein; assay: as above
[6] = target: human SIRPα-isoform 2-his protein (human); assay: indirect ELISA on coated human SIRPα-isoform 2-his, OD(450-630); curve not visible in the scan
[7] = target: human SIRPα-isoform 2-his protein (human); assay: as above; remark: listed apart in the source
[8] = target: T1, full length human SIRPα on cell …; assay: cell based binding FACS on 293F cells expressing human SIRPα, MFI; curve not visible in the scan
[9] = target: T1, full length human SIRPα on cell …; assay: as above; remark: listed apart in the source
[10] = target: T2, full length human SIRPβ on cell …; assay: cell based binding FACS on 293F cells expressing human SIRPβ, MFI; curve not visible in the scan
[11] = target: T2, full length human SIRPβ on cell …; assay: as above; remark: listed apart in the source
[12] = target: T1, full length human SIRPα on cell …; assay: cell based blocking FACS on 293F-SIRPα cells; blocked ligand: biotin-labeled human CD47-Fc, MFI
human SIRPα-his protein [13] = target: T5, human SIRPα-his protein (human, UniProt P78324 31-370); assay: SPR (Biacore T200); antibody captured on Protein A chip, human SIRPα-his flowed from 200 nM; 1:1 Langmuir fit
human SIRPβ-his protein = human SIRPβ-his protein (human, UniProt O00241 30-371); assay: SPR (Biacore T200); antibody captured on Protein A chip, human SIRPβ-his flowed from 200 nM; 1:1 Langmuir fit
[14] = target: T3, human SIRPα-V8-his protein; assay: indirect ELISA on coated human SIRPα-V8-his, OD(450-630); curve flat at the baseline (see non_binding)
[15] = target: human SIRPα-isoform 2-his protein (human); assay: indirect ELISA on coated human SIRPα-isoform 2-his, OD(450-630); curve flat at the baseline (see non_binding)
[16] = target: T1, full length human SIRPα on cell …; assay: cell based blocking FACS on 293F-SIRPα cells; blocked ligand: human CD47 protein (CD47-Fc), MFI; curve not visible in the scan
[17] = target: T1, full length human SIRPα on cell …; assay: as above; remark: listed apart in the source
human SIRPα-his protein [18] = target: T5, human SIRPα-his protein; assay: competitive ELISA on coated human SIRPα-his; blocked ligand: biotin-labeled human CD47-his, OD(450-630); curve not assignable in the scan
[19] = target: T6, recombinant human SIRPα-Fc protein (human, biotin-labeled (sites not given)); assay: capture ELISA, antibody captured on anti-mouse IgG F(ab')2, biotin-labeled human SIRPα-Fc in solution, OD(450-630); curve not visible in the scan
T6 construct: also called biotin-labeled human SIRPα-Fc protein

[20] = target: T7, human SIRPα protein (soluble, used on 293F-CD47 cells) (human, UniProt P78324 31-370, limits assumed); assay: cell based blocking FACS on 293F-CD47 cells; soluble human SIRPα protein blocked from binding cell surface human CD47, MFI; curve not visible in the scan
[21] = target: T7, human SIRPα protein (soluble, used on …); assay: as above; remark: listed apart in the source

T1 sequence (P78324 31-504): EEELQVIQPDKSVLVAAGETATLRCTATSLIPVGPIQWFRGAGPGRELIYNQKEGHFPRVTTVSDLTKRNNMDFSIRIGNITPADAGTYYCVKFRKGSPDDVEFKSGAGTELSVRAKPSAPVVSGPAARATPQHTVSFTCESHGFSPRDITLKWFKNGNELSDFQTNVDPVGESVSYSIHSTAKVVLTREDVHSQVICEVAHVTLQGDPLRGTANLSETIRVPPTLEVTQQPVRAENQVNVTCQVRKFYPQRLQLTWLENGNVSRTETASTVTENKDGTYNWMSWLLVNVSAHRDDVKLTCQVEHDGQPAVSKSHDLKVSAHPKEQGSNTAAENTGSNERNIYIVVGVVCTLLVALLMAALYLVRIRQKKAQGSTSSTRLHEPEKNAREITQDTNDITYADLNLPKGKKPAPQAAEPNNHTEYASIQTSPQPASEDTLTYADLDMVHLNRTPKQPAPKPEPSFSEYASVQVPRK
T5 sequence (P78324 other isoform, or with tags, fused parts or gaps limits assumed): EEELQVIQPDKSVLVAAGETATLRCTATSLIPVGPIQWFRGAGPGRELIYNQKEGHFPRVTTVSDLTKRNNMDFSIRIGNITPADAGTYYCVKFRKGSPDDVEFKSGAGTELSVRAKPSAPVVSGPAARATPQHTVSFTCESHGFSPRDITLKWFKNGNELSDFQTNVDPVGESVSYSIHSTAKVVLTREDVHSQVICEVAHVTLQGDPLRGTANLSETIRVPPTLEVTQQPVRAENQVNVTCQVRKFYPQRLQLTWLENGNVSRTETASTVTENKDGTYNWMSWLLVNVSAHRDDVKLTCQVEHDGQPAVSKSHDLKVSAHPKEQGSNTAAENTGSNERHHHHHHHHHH
T2 sequence (O00241 30-398): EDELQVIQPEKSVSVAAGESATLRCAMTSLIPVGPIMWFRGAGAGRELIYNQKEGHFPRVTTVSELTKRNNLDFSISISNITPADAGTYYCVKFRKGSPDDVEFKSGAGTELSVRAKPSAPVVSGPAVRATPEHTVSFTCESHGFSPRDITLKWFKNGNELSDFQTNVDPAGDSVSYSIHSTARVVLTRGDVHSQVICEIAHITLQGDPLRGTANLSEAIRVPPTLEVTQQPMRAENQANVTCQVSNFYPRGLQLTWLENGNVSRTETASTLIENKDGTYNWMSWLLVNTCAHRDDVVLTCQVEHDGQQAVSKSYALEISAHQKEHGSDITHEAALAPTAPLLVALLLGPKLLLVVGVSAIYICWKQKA
Sequence of human SIRPβ-his protein (O00241 other isoform, or with tags, fused parts or gaps limits assumed): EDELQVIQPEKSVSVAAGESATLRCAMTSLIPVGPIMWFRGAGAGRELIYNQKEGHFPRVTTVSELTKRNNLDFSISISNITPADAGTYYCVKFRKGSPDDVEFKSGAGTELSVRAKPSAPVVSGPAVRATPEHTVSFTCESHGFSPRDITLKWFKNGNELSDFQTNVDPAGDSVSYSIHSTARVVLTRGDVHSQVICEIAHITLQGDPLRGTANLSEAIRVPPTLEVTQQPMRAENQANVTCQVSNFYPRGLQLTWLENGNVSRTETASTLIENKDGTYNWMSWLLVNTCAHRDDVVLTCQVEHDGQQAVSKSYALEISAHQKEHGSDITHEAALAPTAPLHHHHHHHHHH
Sequence of human SIRPα-isoform 2-his protein (human) (chain, as listed by the source limits assumed): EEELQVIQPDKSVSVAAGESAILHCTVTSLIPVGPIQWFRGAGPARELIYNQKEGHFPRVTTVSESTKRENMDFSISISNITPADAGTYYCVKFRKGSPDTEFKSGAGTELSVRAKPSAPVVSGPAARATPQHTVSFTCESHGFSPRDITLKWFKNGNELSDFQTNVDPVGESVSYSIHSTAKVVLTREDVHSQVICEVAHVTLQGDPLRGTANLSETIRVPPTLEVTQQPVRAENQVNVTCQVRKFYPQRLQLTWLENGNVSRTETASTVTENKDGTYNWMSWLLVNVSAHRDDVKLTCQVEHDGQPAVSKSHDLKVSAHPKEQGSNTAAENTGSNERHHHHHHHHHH
T3 sequence (P78324 other isoform, or with tags, fused parts or gaps limits assumed): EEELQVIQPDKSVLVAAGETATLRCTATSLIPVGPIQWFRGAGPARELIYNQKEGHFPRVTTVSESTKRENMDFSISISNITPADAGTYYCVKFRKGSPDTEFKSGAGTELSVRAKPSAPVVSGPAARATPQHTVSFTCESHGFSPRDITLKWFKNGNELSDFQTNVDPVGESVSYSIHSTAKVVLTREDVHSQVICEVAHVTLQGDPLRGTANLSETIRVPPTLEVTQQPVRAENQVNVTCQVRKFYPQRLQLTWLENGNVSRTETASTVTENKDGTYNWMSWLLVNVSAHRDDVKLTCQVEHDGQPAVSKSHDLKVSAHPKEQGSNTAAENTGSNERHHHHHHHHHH
T7 sequence (P78324 31-370 limits assumed): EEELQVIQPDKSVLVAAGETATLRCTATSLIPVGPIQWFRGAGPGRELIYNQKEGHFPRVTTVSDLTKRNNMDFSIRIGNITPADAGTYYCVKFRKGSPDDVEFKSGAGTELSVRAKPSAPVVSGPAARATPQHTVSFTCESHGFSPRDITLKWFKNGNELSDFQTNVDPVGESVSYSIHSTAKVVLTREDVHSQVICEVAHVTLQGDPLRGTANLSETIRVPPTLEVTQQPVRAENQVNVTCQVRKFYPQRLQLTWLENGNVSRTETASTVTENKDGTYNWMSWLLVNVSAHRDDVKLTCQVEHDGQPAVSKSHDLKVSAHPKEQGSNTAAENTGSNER
T6 sequence (chain, as listed by the source limits assumed): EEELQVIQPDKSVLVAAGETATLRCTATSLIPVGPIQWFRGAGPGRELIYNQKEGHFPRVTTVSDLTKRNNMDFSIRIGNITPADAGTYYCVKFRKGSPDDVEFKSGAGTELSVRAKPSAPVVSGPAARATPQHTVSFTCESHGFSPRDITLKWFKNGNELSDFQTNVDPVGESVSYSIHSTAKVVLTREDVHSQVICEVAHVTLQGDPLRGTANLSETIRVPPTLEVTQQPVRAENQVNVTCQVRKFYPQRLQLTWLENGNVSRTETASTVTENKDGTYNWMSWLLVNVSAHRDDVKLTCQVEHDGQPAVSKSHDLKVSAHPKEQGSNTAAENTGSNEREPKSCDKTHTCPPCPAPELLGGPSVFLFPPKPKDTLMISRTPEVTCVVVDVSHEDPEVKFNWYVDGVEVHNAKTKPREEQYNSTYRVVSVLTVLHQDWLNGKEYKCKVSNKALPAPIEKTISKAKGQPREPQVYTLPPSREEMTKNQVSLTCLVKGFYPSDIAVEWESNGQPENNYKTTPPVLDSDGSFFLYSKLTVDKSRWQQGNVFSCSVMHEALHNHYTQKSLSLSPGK

B1: BI-765063 (antibody, human IgG4 S228P, kappa, V domains shown)
VH: EVQLVQSGAEVKKPGESLRISCKASGYSFTSYWVHWVRQMPGKGLEWMGNIDPSDSDTHYSPSFQGHVTLSVDKSISTAYLQLSSLKASDTAMYYCVRGGTGTLAYFAYWGQGTLVTVSS
VL: DVVMTQSPLSLPVTLGQPASISCRSSQSLVHSYGNTYLYWFQQRPGQSPRLLIYRVSNRFSGVPDRFSGSGSGTDFTLKISRVEAEDVGVYYCFQGTHVPYTFGGGTKVEIKR
notes: also called BM5
EC50 [1]: 0.633 nM
EC50 [2]: 0.509 nM
EC50 [3]: ~167 nM
EC50 [4]: ~7840 nM
EC50 [5]: ~16.6 nM
EC50 [6]: 15.2 nM
EC50 [7]: ~4000 nM
EC50 [8]: 0.585 nM
EC50 [9]: 0.545 nM
EC50 [10]: 0.482 nM
EC50 [11]: 0.46 nM
IC50 [12]: 0.338 nM
Kd (human SIRPα-his protein [13]): 26.7 nM
koff (human SIRPα-his protein [13]): 0.00775 s⁻¹
kon (human SIRPα-his protein [13]): 290000 M⁻¹ s⁻¹
Kd (human SIRPβ-his protein): 30.5 nM
koff (human SIRPβ-his protein): 0.00928 s⁻¹
kon (human SIRPβ-his protein): 304000 M⁻¹ s⁻¹
EC50 [14]: 12.2 nM
EC50 [15]: ~11 nM
IC50 [16]: 1.9 nM
IC50 [17]: 1.83 nM
IC50 (human SIRPα-his protein [18]): 3.92 nM
EC50 [19]: 0.249 nM
IC50 [20]: 0.361 nM
IC50 [21]: 0.386 nM
